We go through 18 molecules from patent US20100292442A1 (Amgen, published 2010).

Read-outs that look alike come from different tables or passages of the source.

In assay [1] the target is T1, cynomolgus IL-17RA on cells (cynomolgus).
T1 construct: whole, on cells; also called CHO-cynoIL-17RA; cyno IL-17RA+ CHO cells
The assay can be described thus: FACS competition, non-clonal hybridoma supernatant; MFI of biotin-huIL-17A (competitor, 500 ng/ml) on cyno IL-17RA+ CHO cells.
Protocol: (§1) Non-clonal hybridoma supernatants were prepared in volumes of 1-2 mls (the Ig concentrations were not determined for these supernatants). […] Anti-IL-17RA non-clonal hybridomas were selected for sub-cloning based on their performance in the CHO-IL-17RA FACS assay and HFF bioassay.

The target in assay [2] is T2, Human IL-17RA full-length expressed on the surface of cells (human, UniProt Q96F46 33-866).
T2 construct: used here for over-expressing CHO cells (FACS) and for the native receptor on human fibroblasts (bioassays); also called IL-17RA CHO cells; CHO-huIL-17RA
In words: FACS competition, non-clonal hybridoma supernatant; % cells positive for biotin-huIL-17A (competitor, 500 ng/ml) on huIL-17RA+ CHO cells (second % positive column).
Protocol: as §1

Assay [3] deals with T2, Human IL-17RA full-length expressed on …. The assay can be described thus: FACS competition, non-clonal hybridoma supernatant; % cells positive for biotin-huIL-17A (competitor, 500 ng/ml) on huIL-17RA+ CHO cells.
Protocol: as §1
Assay [4] has as its target T1, cynomolgus IL-17RA on cells. The assay can be described thus: FACS competition, non-clonal hybridoma supernatant; MFI of biotin-huIL-17A (competitor, 500 ng/ml) on cyno IL-17RA+ CHO cells. The source holds these as a separate data set.
A further assay addresses T3, huIL-17RA-FLAG-polyHis (human, UniProt Q96F46 33-320).
T3 construct: also called wild-type IL-17RA-FLAG-polyHis; HuIL-17RA-Flag-pHis
The assay can be described thus: Luminex binning; bead huIgG control (f15) + IL-17RA [D00007 Fig. 8B].

The target in assay [5] is T1, cynomolgus IL-17RA on cells. In words: FACS competition, non-clonal hybridoma supernatant; MFI of biotin-huIL-17A (competitor, 500 ng/ml) on cyno IL-17RA+ CHO cells. This is another data set of the same source.
Assay [6] has the same target. In words: cell-based or functional assay.

Protocol for huIL-17RA-FLAG-polyHis: Cross-competition studies were performed to determine IL-17RA binding characteristics of exemplary IL-17RA neutralizing antibodies. […] The method employed the Bio-Plex Workstation and software (BioRad, Hercules, Calif.), as well as reagents from Luminex® Corp. (Austin, Tex.). The manufacturers' basic protocols were followed except where noted below (see www.bio-rad.com and www.luminexcorp.com for details). […] The mouse-anti-human IgG coating was evaluated and the beads quantified by FACS. Each bead code was separately incubated with 10 ul of anti-IL-17RA antibody for 1 hour at room temperature and then washed. The beads were pooled and then dispensed to a 96-well filter plate (Millipore, Billerica, Mass., product #MSBVN1250). […] The PE-tagged monovalent antibody will detect the presence of the second mAb added to the well, but not the first mAb captured by the monovalent mouse-anti-human IgG antibody. Beads were resuspended in 120 ul PBSAT and at least 100 events/bead code were collected on the Bio-Plex workstation as per the manufacturer's recommended protocol.

B1: AMH13/AML13 (antibody, V domains shown)
VH: QVQLVESGGGVVQPGRSLRLSCAASGFTFSSYGMQWVRQAPGKGLEWVAVIWYDGNKKYYADSVKGRFTISRDNSKNTLYLQMNSLRAEDTAVYYCARGRVRDYYYGMDVWGQGTTVTVSS
VL: DIVMTQTPLSLSVTPGQPASIACKSSQSLLHSDGKTYLYWYLQKPGQPPQLLIYEVSTRFSGVPDRFSGSGSGTDFTLKISRVEAEDVGVFYCMQSIQLPLTFGGGTKVEIK
notes: Fully human mAb from IgG2 XenoMouse hybridomas
On to B1, for which, in assay [1], the MFI is 6 MFI. Further, the “% positive” value in assay [2] stood at 0.89%; in assay [3], 1.52%.

B2: AMH22/AML22 (antibody, V domains shown)
VH: QVQLVQSGAEVKKPGASVKVSCKASGYTFTRYGISWVRQAPGQGLEWMGWISAYSGNTNYAQKLQGRVTMTTDTSTSTAYMELRSLRSDDTAVYYCARRQLYFDYWGQGTLVTVSS
VL: EIVMTQSPATLSVSPGERVTLSCRASQSVSSNLAWFQQKPGQAPRPLIYDASTRAAGIPARFSGSGSGTDFTLTISSLQSEDFAVYYCQQYDNWPLTFGGGTKVEIK
notes: Fully human mAb from IgG2 XenoMouse hybridomas; also called AM-22
On to B2, for which the MFI in assay [4] amounted to 18 MFI.

B3: AMH12/AML12 (antibody, V domains shown)
VH: QVQLVQSGAEVKKPGASVKVSCKASGYTLTSYGISWVRQAPGQGLEWMGWISTYKGNTNYAQKLQGRVTMTTDTSTSTAYMELRSLRSDDTAVYYCARKQLVFDYWGQGTLVTVSS
VL: EIVMTQSPATLSVSPGERATLSCRASQSISSSLAWYQQKPGQAPRLLIYGASTRATGIPARFSGSGSGTEFTLTISSLQSENFAVYYCQQYDNWPLTFGGGTKVEIK
notes: Fully human mAb from IgG2 XenoMouse hybridomas; also called AM-12
Consider B3, for which the “normalized MFI” value in the assay with huIL-17RA-FLAG-polyHis was determined as 32. In addition, in assay [1], the MFI was determined as 6 MFI. Besides, the “% positive” value was found to be 1.36% in assay [2] and 1% in assay [3].

B4: AMH17/AML17 (antibody, V domains shown)
VH: QVQLVQSGAEVKKPGAAVKVSCKATGYTLTSYGISWVRQAPGQGLEWMGWISAYSGNTKYAQKLQGRVTMTTDTSTSTAYMELRSLRSDDTAVYYCARKQLVFDYWGQGTLVTVSS
VL: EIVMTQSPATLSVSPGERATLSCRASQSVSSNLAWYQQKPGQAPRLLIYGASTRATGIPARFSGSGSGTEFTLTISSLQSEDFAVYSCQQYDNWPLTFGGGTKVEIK
notes: Fully human mAb from IgG2 XenoMouse hybridomas; also called AM-17
With B4, the “normalized MFI” value with huIL-17RA-FLAG-polyHis was found to be 56. Further, the MFI in assay [1] stood at 8 MFI. Besides, the “% positive” value was determined as 1.23% in assay [2] and 1.75% in assay [3].

B5: AMH15/AML15 (antibody, IgG2, V domains shown)
VH: QVQLVESGGGVVQPGRSLRLSCAASGFTFSSYGMQWVRQAPGKGLEWVAVIWYDGNKKYYADSVKGRFTISRDNSKNTLYLQMNSLRAEDTAVYYCARGRVRDYYYGMDVWGQGTTVTVSS
VL: EIVMTQSPATLSVSPGERVTLSCRASQSVSSNLAWFQQKPGQAPRPLIYDASTRAAGIPARFSGSGSGTDFTLTISSLQSEDFAVYYCQQYDNWPLTFGGGTKVEIK
notes: Fully human mAb from IgG2 XenoMouse hybridomas; also called AM-15
In assay [5], B5 showed an MFI of 6 MFI.

B6: AMH14/AML14 (antibody, V domains shown)
VH: QVQLVQSGAEVKKPGASVKVSCKASGYTFTRYGISWVRQAPGQGLEWMGWISTYSGNTNYAQKLQGRVTMTTDTSTSTAYMELRSLRSDDTAVYYCARRQLYFDYWGQGTLVTVSS
VL: EIVMTQSPATLSVSPGERATLSCRASQSVSSNLAWFQQKPGQAPRPLIYDASTRATGVPARFSGSGSGTDFTLTISSLQSEDFAVYYCQQYDNWPLTFGGGTKVEIK
notes: Fully human mAb from IgG2 XenoMouse hybridomas; also called AM-14
B6: the MFI in assay [5] worked out at 10 MFI. In assay [6], the “IC50, cynomolgous IL-17A-induced IL-6 production from JTC-12 cells” value was roughly 1.2 nM.

B7: AMH16/AML16 (antibody, V domains shown)
VH: QVQLVQSGAEVKKPGASVKVSCKASGYTFTSYGISWVRQAPGQGLEWMGWISAYNGNTKYAQKLQGRVTMTTDTSTSTVYMELRSLRSDDTAVYYCARKQLVFDYWGQGTLVTVSS
VL: EIVMTQSPATLSVSPGERATLSCRASQSISTSLAWYQQKPGQAPRLLIYGTSTRATGIPARFSGSGSGTEFTLTISSLQSEDFAVYFCQQYDIWPLTFGGGTKVEIK
notes: Fully human mAb from IgG2 XenoMouse hybridomas; also called AM-16
B7: the “normalized MFI” value in the assay with huIL-17RA-FLAG-polyHis stood at 95. Moreover, in assay [1], the MFI came to 6 MFI. Besides, the “% positive” value in assay [2] turned out to be 0.76%; in assay [3], 1.84%.

B8: AMH18/AML18 (antibody, V domains shown)
VH: QVQLVQSGAEVKKPGASVKVSCKASGYSFTDYYMHWVRQAPGQGLEWMGWMHPNSGGTDLAQRFQGRVTMTRDTSISTAYMELSRLRSDDTAVYYCARGGYCSTLSCSFYWYFDLWGRGTLVTVSS
VL: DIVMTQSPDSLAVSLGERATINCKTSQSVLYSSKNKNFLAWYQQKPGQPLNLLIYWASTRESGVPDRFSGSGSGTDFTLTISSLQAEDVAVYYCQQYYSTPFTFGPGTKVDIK
notes: as for B1
Regarding B8, in the assay with huIL-17RA-FLAG-polyHis, the “normalized MFI” value was -5.

B9: AMH7/AML7 (antibody, V domains shown)
VH: QVQLVQSGAEVKKPGASVKVSCKASGYTLTRYGISWVRQAPGQGLEWMGWISAYNGNTNYAQKLQGRVTMTTDTSTSTAYMELRSLRSDDTAVYYCARRDYDILTGYYNGFDPWGQGTLVTVSS
VL: DIQMTQSPSSLSASVGDRVTITCRASQGIRNDLGWYQQKPGKAPKRLIYAASSLQSGVPSRFSGSGSGTEFTLTISSLQPEDFATYYCLQHKSYPLTFGGGTKVEIK
notes: as for B1
Consider B9, for which the “normalized MFI” value in the assay with huIL-17RA-FLAG-polyHis is 123.

B10: AMH1/AML1 (antibody, V domains shown)
VH: QVQLQESGPGLVKPSETLSLTCTVSGGSISNYYWNWIRQSPGKGLEWIGDIYYSGSTNYNPSLKSRVTISVDTSKNQFSLKLSSVTTADTAVYYCARDGELANYYGSGSYQFYYYYGMDVWGQGTTVTVSS
VL: DILMTQSPSSLSASVGDRVTITCRASQGIRNDLGWYQQKPGKAPKRLIYAASSLQSGVPSRFSGSGSGTEFTLTISSLQPEDFATYYCLQHNSNPFTFGPGTKVDIK
notes: as for B1
B10: the MFI in assay [4] stood at 11 MFI.

B11: AMH6/AML6 (antibody, V domains shown)
VH: QVQLVQSGAEVKKPGASVKVSCKASGYTLTRYGISWVRQAPGQGLEWMGWISAYNGNTNYAQKLQGRVTMTTDTSTSTAYMELRSLRSDDTAVYYCARRDYDILTGYYNGFDPWGQGTLVTVSS
VL: DIQMTQSPSSLSASVGDRVTITCRASQGIRNDLGWYQQKPGKAPKRLIYAASSLQSGVPSRFSGSGSGTEFTLTISSLQPEDFATYYCLQHKSYPLTFGGGTKVEIK
notes: as for B1
Consider B11, for which the “normalized MFI” value in the assay with huIL-17RA-FLAG-polyHis amounted to 26.

B12: AMH5/AML5 (antibody, IgG2, V domains shown)
VH: QVQLQESGPGLVKPSETLPLTCTVSGGSIRSYYWSWIRQPAGKGLEWIGRIYRSGNTIYNPSLKSRVTMSIDTSKNQFSLTLSSVTAADTAVYYCARENYSESSGLYYYYGMDVWGQGTTVTVSS
VL: DIQMTQSPSSLSASVGDRVTITCRASQGIRNDLGWYQQKPGKAPKRLIYAASSFQSGVPSRFSGSGSGTGFTLTISSLQPEDFATYYCLQHNSYPPTFGQGTKVEIK
notes: Fully human mAb from IgG2 XenoMouse hybridomas; also called AM-5
On to B12, for which the MFI in assay [4] turned out to be 9 MFI.

B13: AMH8/AML8 (antibody, V domains shown)
VH: QVQLVQSGAEVKKPGASVKVSCKASGNTFTGYGISWVRQAPGQGLEWMGWISAYNGNTNYAQNLQGRVTMTTDTSTSTAYMELRSLRSDDTAVYYCARRDYDILTGYYNGFDPWGQGTLVTVSS
VL: DIQMTQSPSSLSASVGDRVTITCRASQGIRNDLGWYQQKPGKAPKRLIYAASSLQSGVPSRFSGSGSGTEFTLTISSLQPEDFATYYCLQHKSYPLTFGGGTKVEIK
notes: as for B1
As to B13, in the assay with huIL-17RA-FLAG-polyHis, the “normalized MFI” value was determined as 54.

B14: AMH10/AML10 (antibody, V domains shown)
VH: QVQLQESGPGLVKPSQTLSLTCTVSGGSISSGGYYWSWIRQHPGKGLEWIGYIYFSGSAYYNPSLKSRVAISVDTSKNQFSLKLSSVTAADTAVYYCAREYYDSSGYPDAFDIWGQGTMVTVSS
VL: DIQMTQSPSSVSASVGDRVTITCRASQGIRSWLAWYQQKPGKAPKLLIFAASSLQSGVPSRFSGSGSGTEFTLTISSLQPEDFATYYCQQANNFPRTFGQGTKVEIK
notes: Fully human mAb from IgG2 XenoMouse hybridomas; also called AM-10
Consider B14, for which the “normalized MFI” value with huIL-17RA-FLAG-polyHis is 140.

B15: AMH4/AML4 (antibody, V domains shown)
VH: QVQLVESGGGVVQPGRSLRLSCAASGINFSSYGMHWVRQAPGKGLEWVAVIWYDGSNKHYADSVKGRFTISRDNSKNTLYLQMNSLRAEDTAVYYCARDTGVYWGQGTLVTVSS
VL: not shown
notes: as for B1
With B15, the “normalized MFI” value with huIL-17RA-FLAG-polyHis turned out to be 37.

B16: AMH11/AML11 (antibody, V domains shown)
VH: QVQLVESGGGVVQPGRSLRLSCATSGITFSSYGMHWVRQAPGKGLEWVAVIWYDGSNKYYADSVKGRFTISRDNSKNTLYLQMNSLRAEDTAVYYCARDTKDYWGQGTLVTVSS
VL: EIVMTQSPATLSVSPGERATLSCRASQSVSSNLAWYQQKPGQAPRLLIYGASTRAAGIPARFSGGGSGTAFTLTISNLQSEDFAVYYCQHYINWPKWTFGQGTKVDIK
notes: as for B1
As for B16, the “normalized MFI” value with huIL-17RA-FLAG-polyHis was 84. This molecule had an MFI in assay [4] of 9 MFI.

B17: AMH21/AML21 (antibody, V domains shown)
VH: EVQLVESGGGSVQPGGSLRLSCAASGFTFSSYSMNWVRQAPGKGLEWVSIISSRSSIIHYADSVKGRFTISRDNAKNSLYLQMNSLRDEDTAVYYCARPKVGGGMDVWGQGTTVTVSS
VL: DIQMTQSPSSLSASVGDRVTITCRASQGISNYLAWYQQKPGKFPELLIYAASTLQSGVPSRFSGSGSGTDFTLTISSLQPEDVATYYCQKYNRAPFTFGPGTKVDIK
notes: Fully human mAb from IgG2 XenoMouse hybridomas; also called AM-21
Turning to B17, in the assay with huIL-17RA-FLAG-polyHis, the “normalized MFI” value amounted to 28. For the same molecule, the MFI in assay [5] came out at 6 MFI.

B18: AMH20/AML20 (antibody, V domains shown)
VH: EVQLVESGGGLVQPGGSLRLSCAASGFTFSSYSMNWVRQAPGKGLEWVSFISARSSTIYYADSVKGRFTISRDNAKNSLYLQMNSLRDEDTAVYYCARPKVGGGMDVWGQGTTVTVSS
VL: DIQMTQSPSSLSASVGDRVTITCRASQGISNYLAWYQQKPGKFPELLIYAASTLQSGVPSRFSGSGSGTDFTLTISSLQPEDVATYYCQKYNRAPFTFGPGTKVDIK
notes: Fully human mAb from IgG2 XenoMouse hybridomas; also called AM-20
With B18, the “normalized MFI” value in the assay with huIL-17RA-FLAG-polyHis turned out to be 50.
